Results on three molecules are retold here after publication PMC10805922, “Exosomal secreted SCIMP regulates communication between macrophages and neutrophils in pneumonia” (Nature Communications, 2024).

Where no end group is shown, it is not given here.

The target in assay [1] is T1, murine FPR1 (murine, UniProt P33766 1-364).
T1 construct: formyl peptide receptor 1, mouse, overexpressed in HEK293 cells; also called murine formyl peptide receptor 1; source: HEK293 overexpressing FPRs, membrane debris
T1 sequence (looked up): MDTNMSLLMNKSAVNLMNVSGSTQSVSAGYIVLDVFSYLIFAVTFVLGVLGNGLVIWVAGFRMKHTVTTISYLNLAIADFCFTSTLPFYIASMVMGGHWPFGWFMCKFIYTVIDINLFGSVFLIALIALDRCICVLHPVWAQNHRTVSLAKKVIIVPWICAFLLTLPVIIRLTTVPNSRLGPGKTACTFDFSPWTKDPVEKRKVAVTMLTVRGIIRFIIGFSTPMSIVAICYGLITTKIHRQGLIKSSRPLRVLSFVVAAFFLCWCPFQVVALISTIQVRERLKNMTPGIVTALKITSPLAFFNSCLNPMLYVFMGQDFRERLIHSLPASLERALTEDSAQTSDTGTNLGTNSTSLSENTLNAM
Description: other fluorescence titration; competitive binding assay; labelled SCIMP^N mixed with serially diluted fMLF (5-1280 nM) and a fixed amount of FPR-containing HEK293 membrane debris, fluorescence at 512 nm measured for 4 min.

Assay [2] concerns the target T2, murine FPR2 (murine, UniProt O88536 1-351).
T2 construct: formyl peptide receptor 2, mouse, overexpressed in HEK293 cells; also called murine formyl peptide receptor 2; source: HEK293 overexpressing FPRs, membrane debris
T2 sequence (looked up): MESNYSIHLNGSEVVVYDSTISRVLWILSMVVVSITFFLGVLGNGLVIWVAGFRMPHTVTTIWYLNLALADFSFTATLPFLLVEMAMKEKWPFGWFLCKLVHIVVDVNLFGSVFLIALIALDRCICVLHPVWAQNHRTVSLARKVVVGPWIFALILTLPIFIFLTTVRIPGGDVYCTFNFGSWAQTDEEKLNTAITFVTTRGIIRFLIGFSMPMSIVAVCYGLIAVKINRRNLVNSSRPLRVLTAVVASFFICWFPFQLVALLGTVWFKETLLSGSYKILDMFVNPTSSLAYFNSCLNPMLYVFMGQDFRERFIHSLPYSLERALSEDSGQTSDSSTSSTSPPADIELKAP
The description is as above.

The target of assay [3] is T3, human formyl peptide receptor 1 (FPR1) (human, UniProt P21462 1-350).
T3 construct: formyl peptide receptor 1, human, overexpressed in HEK293 cells; also called FPR1-HEK293; source: HEK293, transiently overexpressed
T3 sequence (looked up): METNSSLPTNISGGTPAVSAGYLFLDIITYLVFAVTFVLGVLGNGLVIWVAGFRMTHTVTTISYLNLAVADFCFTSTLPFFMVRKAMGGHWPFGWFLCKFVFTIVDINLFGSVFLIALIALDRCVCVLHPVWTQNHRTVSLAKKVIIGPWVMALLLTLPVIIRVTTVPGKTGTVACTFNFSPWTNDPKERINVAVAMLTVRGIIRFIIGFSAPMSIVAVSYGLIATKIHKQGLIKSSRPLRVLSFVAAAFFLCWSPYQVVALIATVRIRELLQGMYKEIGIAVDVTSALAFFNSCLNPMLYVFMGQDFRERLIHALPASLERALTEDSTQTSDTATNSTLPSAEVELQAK
Described as above.

Assay [4] deals with T4, human formyl peptide receptor 2 (FPR2) (human, UniProt P25090 1-351).
T4 construct: formyl peptide receptor 2, human, overexpressed in HEK293 cells; also called FPR2-HEK293; source: HEK293, transiently overexpressed
T4 sequence (looked up): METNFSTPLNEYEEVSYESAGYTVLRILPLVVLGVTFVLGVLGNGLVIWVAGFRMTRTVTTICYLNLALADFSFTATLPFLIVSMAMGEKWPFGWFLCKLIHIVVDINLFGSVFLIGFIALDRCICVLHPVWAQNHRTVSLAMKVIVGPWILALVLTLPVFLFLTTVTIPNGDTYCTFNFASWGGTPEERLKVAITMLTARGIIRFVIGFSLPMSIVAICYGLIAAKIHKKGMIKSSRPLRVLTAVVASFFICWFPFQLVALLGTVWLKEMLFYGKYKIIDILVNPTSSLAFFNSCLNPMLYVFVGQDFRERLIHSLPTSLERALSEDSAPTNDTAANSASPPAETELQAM
Described as above.

Assay [5] has as its target T3, human formyl peptide receptor 1 (FPR1). As to the kind of experiment: other fluorescence titration; saturation binding assay; BODIPY FL iodoacetamide-labelled SCIMP^N with membrane component (debris) of HEK293 cells overexpressing FPRs, black/clear bottom 96-well plate, quenching of the label on binding, excited at 370 nm, detected at 512 nm, measured for 4 min. Conditions: one partner purified.

Assay [6] has as its target T4, human formyl peptide receptor 2 (FPR2). The assay is described as above. As to conditions: one partner purified.
In assay [7] the target is T1, murine FPR1. Described as above. As to conditions: one partner purified.
Assay [8] concerns the target T2, murine FPR2. The description is as above. As to conditions: one partner purified.

As for N-Formyl-Met-Leu-Phe (fMLF) (peptide), the IC50 with murine FPR1 [1] was found to be 148 nM; with murine FPR2 [2] it was 43.1 nM; in assay [3] it was 55.2 nM; in assay [4], 38.4 nM.

B1: human SCIMP N-terminus peptide (SCIMP^N, 18aa) (peptide)
peptide: MDTFTVQDSTAMSWWRNN
modifications: also: labeled with BODIPY FL iodoacetamide, site not given here
notes: the 18 amino acids before the transmembrane domain at the N-terminus (extramembrane fragment); also called SCIMP N-terminal peptides; source: synthetic peptide (Chinese-Peptide-Company.Inc), purity more than 95%
Consider B1, for which the Kd in assay [5] turned out to be 3.8 nM; in assay [6], 3.5 nM.

B2: murine SCIMP N-terminus peptide (murine SCIMP^N) (peptide)
peptide: MSWWRDNF
modifications: also: labeled with BODIPY FL iodoacetamide, site not given here
notes: N-terminus peptide; source: synthetic peptide (chemically synthesized and purified; Chinese-Peptide-Company.Inc), purity more than 95%
As for B2, the Kd was determined as 1.08 nM in the assay with murine FPR1 [7] and 0.54 nM in the assay with murine FPR2 [8].

By IC50 is commonly meant the concentration at which inhibition is half-maximal. Low values mean higher potency, high ones lower potency. For orientation: Kd means the free concentration of one partner at which half of the binding sites on the other are occupied at equilibrium, for simple one-to-one binding. The low end stands for a tighter complex, the high end for a looser complex.
